Columns and labels:
[1] = target: eukaryotic Initiation Factor 4E (eIF4E), wild type (mouse (endogenous in forebrain)) (UniProt P63073); assay: pull-down; cap-column pulldown: 500 ug forebrain lysate protein with 50 ul m7GDP agarose in buffer C (50 mM MOPS-KOH pH 7.4, 100 mM NaCl, 50 mM NaF, 0.5 mM EDTA, 0.5 mM EGTA, 0.1 mM GTP), 90 min at 4 C; eIF4E held by its ligand m7GDP; cap-bound fraction immunoblotted and quantified, normalised to input
eIF4G = eIF4G (UniProt Q6NZJ6); assay: m7GDP-agarose cap pull-down, immunoblot; conditions: reference: wild-type mouse forebrain; sites S209
Gapdh = Gapdh (UniProt P16858); assay: m7GDP-agarose cap pull-down, immunoblot; conditions: reference: wild-type mouse forebrain; sites S209
rpL13a = rpL13a (UniProt P19253); assay: m7GDP-agarose cap pull-down, immunoblot; conditions: reference: wild-type mouse forebrain; sites S209

Sequence of Gapdh, P16858 1-333 (natural protein; other documents disagree on this pair) (P16858 whole entry): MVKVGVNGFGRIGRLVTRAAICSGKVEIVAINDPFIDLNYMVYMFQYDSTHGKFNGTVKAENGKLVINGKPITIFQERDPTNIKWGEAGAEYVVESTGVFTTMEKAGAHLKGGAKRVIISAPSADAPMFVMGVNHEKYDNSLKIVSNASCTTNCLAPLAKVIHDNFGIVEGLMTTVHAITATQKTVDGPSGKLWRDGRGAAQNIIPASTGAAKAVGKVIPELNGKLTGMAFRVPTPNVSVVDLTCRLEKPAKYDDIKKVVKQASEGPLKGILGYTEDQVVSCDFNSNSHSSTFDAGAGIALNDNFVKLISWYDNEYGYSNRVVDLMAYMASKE

Row | Substance | cap-bound protein (arbitrary units, normalised to input) (arbitrary units) [1] | other: cap-bound band intensity normalized to input (eIF4G) | other: cap-bound band intensity normalized to input (Gapdh) | other: cap-bound band intensity normalized to input (rpL13a)
1 | Gapdh, P16858 1-333 (natural protein; other documents disagree on this pair) | 0.998 | – | – | –
2 | eIF4E (from UniProt P63073) 4Eki (S209A knock-in) forebrain | – | same; reference 1.002 ± 0.149 | same; reference 0.998 ± 0.254 | weaker; reference 0.9975 ± 0.1723

From PMC5824745
